Our source for the Ki values is US20030114646A1 (Human Genome Sciences, published 2003).

The assay has as its target T1, papain (UniProt P00784 134-345).
T1 sequence (looked up): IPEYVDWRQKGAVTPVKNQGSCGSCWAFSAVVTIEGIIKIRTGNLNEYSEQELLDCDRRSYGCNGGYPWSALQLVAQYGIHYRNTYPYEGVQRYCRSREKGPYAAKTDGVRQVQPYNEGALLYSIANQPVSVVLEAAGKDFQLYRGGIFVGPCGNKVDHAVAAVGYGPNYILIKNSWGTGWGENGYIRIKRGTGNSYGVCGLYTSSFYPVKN
Description: reversible inhibition of papain activity, Ki corrected for substrate competition (Km=60 µM).

B1: human Cystatin F (recombinant, produced in a baculovirus system) (other)
chain: GPSPDTCSQDLNSRVKPGFPKTIKTNDPGVLQAARYSVEKFNNCTNDMFLFKESRITRALVQIVKGLKYMLEVEIGRTTCKKNQHLRLDDCDFQTNHTLKQTLSCYSEVWVVPWLQHFEVPVLRCH
notes: 20-145 is used here; also called recombinant Cystatin F
By Ki is commonly meant the dissociation constant of the complex between target and ligand, obtained from inhibition or displacement. Read a low Ki as tighter binding. For B1, the Ki turned out to be 1.05 nM.
